This data set concerns the target Lys38 (UniProt position 38, …). Nature of the data set: kinetics. Conditions: 19°C; 50 mM/50 mM TRIS/HEPES (pH 8.3-6.3), TRIS/MES (pH 6.6, 5.8), TRIS/citric acid (pH 5.3-2.8); Transporter in the native yeast plasma membrane, turning over with 1 mM L-lactate. The authors link the 7.43 inflection to Lys 38 in the substrate-unbound state.

pKa data for 1 protein are collected here from PMC9982067.

As a reminder, the pKa is the pH at which an ionisable group is half protonated. Low readings indicate a group that gives up its proton readily, high ones a group that holds its proton tightly.

B1: Monocarboxylate transporter 1 (MCT1) (Homo sapiens) (protein)
chain: MPPAVGGPVGYTPPDGGWGWAVVIGAFISIGFSYAFPKSITVFFKEIEGIFHATTSEVSWISSIMLAVMYGGGPISSILVNKYGSRIVMIVGGCLSGCGLIAASFCNTVQQLYVCIGVIGGLGLAFNLNPALTMIGKYFYKRRPLANGLAMAGSPVFLCTLAPLNQVFFGIFGWRGSFLILGGLLLNCCVAGALMRPIGPKPTKAGKDKSKASLEKAGKSGVKKDLHDANTDLIGRHPKQEKRSVFQTINQFLDLTLFTHRGFLLYLSGNVIMFFGLFAPLVFLSSYGKSQHYSSEKSAFLLSILAFVDMVARPSMGLVANTKPIRPRIQYFFAASVVANGVCHMLAPLSTTYVGFCVYAGFFGFAFGWLSSVLFETLMDLVGPQRFSSAVGLVTIVECCPVLLGPPLLGRLNDMYGDYKYTYWACGVVLIISGIYLFIGMGINYRLLAKEQKANEQKKESKEEETSIDVAGKPNEVTKAAESPDQKDTDGGPKEEESPV
Protein B1 returned a pKa of 7.43.
